Values of other authors, collected in PMC12692597.

Target: IL-13 (Homo sapiens) (UniProt P35225)
UniProt P35225, sequence (P35225 25-146): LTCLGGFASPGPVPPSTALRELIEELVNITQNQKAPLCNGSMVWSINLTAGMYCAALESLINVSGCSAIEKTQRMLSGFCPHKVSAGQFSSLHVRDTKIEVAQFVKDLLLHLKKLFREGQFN

In the case of IL-13Rα2 (from UniProt Q14627), the Kd is given as 0.02 nM.
